Values quoted from earlier work, collected in PMC12521419.

Tests used:
[1] = system: LMBV virion (largemouth bass virus particle; binding protein not identified) (Largemouth bass virus (genus Ranavirus, family Iridoviridae), isolated from diseased largemouth bass, propagated in FHM cells); test: not stated for truncated form (ELASA stated for parent LA38); details: PBS, aptamers 500 nM each with LMBV in 100 uL for 1 h (temperature not stated); streptavidin beads 4 C 30 min; washes PBS + 0.1% Tween-20; SDA 37 C 30 min …
[2] = system: LMBV virion (largemouth bass virus particle; binding protein not identified) (Largemouth bass virus (genus Ranavirus, family Iridoviridae), isolated from diseased largemouth bass, propagated in FHM cells); test: not stated for truncated form (ELASA stated for parent LA13); details: PBS, aptamers 500 nM each with LMBV in 100 uL for 1 h (temperature not stated); streptavidin beads 4 C 30 min; washes PBS + 0.1% Tween-20; SDA 37 C 30 min …

Sequence	Kd [1]	Kd [2]
GCCGGCCCGGGGGATAGAGTGCTCCCGATCCCTTGGCGAAGGGAC [LA38s]	3.42 nM	–
TTTTGACGCTTTATCCTTTTCTTATGGCGGGATAGTTTCG [LA13s]	–	2.34 nM
